Biological target: mouse TIM-3 on cells (splenic dendritic cells, D2SC1 dendritic cell line, TIM-3+ Th1 T cells) (mouse) (UniProt Q8VIM0)
Assay: cell-based or functional assay

UniProt Q8VIM0, sequence (Q8VIM0 other isoform, or with tags, fused parts or gaps limits assumed): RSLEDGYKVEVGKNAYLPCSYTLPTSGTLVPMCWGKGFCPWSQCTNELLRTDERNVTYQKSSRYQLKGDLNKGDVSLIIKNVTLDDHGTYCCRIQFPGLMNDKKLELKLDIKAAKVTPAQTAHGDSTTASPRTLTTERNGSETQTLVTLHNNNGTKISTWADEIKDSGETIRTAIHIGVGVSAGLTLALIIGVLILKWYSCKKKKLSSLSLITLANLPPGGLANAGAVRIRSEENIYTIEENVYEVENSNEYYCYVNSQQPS

production of TNF-α in response to LPS and LPS plus galectin-9, TIM-3-/- DCs relative to wild type DCs: 30 to 40%
Substance: recombinant human galectin-9 (from UniProt O00182 1-355) (ligand)

Reference: patent US20100061992A1
